± gives the uncertainty stated by the source.
Assay: self-splicing fitness, log relative to wild type (ln ratio); higher = more splicing; Tetrahymena group I intron in knt gene, E. coli kanamycin selection, DiMSum; sequences stand for … in CUCUCU…GGAGGGAAAAGUUAUCAGGCAUGCACCUGGUAGCUAGUCUUUAAACCAAUAGAUUGCAUCGGUUUAAAAGGCAAGACCGUCAAAUUGCGGGAAAGGGGUCAACAGCCGUUCAGUACCAAGUCUCAGGGGAAACUUUGAGAUGGCCUUGCAAAGGGUAUGGUAAUAAGCUGACGGACAUGGUCCUAACCACGCAGCCAAGUCCUAAGUCAACAGAUCUUCUGUUGAUAUGGAUGCAGUUCACAGACUAAAUGUCGGUCGGGGAAGAUGUAUUCUUCUCAUAAGAUAUAGUCGGACCUCUCCUUAAUGGGAGCUAGCGGAUGAAGUGAUGCAACACUGGAGCCGCUGGGAACUAAUUUGUAUGCGAAAGUAUAUUGAUUAGUUUUGGAGUACUCGUGGUCG
Method in brief: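 Colonies from six replicate transformations of E. coli BL21(DE3) were pooled and amplicon-sequenced on an Illumina HiSeq 2500. The library placed an intron with all eight P1ex-region nucleotides randomised inside the knt kanamycin-resistance gene on pET-22b(+), and cells grew overnight at 37°C or 30°C on LB agar with or without 25 μg/mL kanamycin (plus 100 μg/mL carbenicillin, 50 μM IPTG, 0.2% rhamnose). Fitness is the DiMSum error-weighted combination of wild-type-normalised replicate fold changes, kanamycin versus none.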

Sequence	self-splicing fitness (ln) (30 °C)	self-splicing fitness (ln) (37 °C)
ACGAAGCAAUAUUACGCACU	-0.656 ± 0.094	-0.172 ± 0.11
AUUCAGCAAUAUUACGCUUU	-0.755 ± 0.055	-0.787 ± 0.068
AUCCAGCAAUAUUACGCUUA	-0.592 ± 0.064	0.389 ± 0.094
UUGAAGCAAUAUUACGCACA	-0.575 ± 0.11	0.157 ± 0.13
GUUAAGCAAUAUUACGCCGU	-1.42 ± 0.19	-1.39 ± 0.23
AGGUAGCAAUAUUACGCAAG	-2.25 ± 0.018	-1.26 ± 0.034
GGCCAGCAAUAUUACGCGAG	–	-2.98 ± 0.35
CACCAGCAAUAUUACGGUGA	-2.61 ± 0.095	-3.26 ± 0.15
CACGAGCAAUAUUACGGAGU	-4.82 ± 0.32	-3.69 ± 0.24
GAUGAGCAAUAUUACGCAGU	-3.61 ± 0.3	-2.44 ± 0.33
CAUGAGCAAUAUUACGUGAG	-3.88 ± 0.37	-2.55 ± 0.24
UUAGAGCAAUAUUACGCGUC	-2.56 ± 0.29	–
GAGAAGCAAUAUUACGUGGA	-2.64 ± 0.17	-1.81 ± 0.14
GGAAAGCAAUAUUACGAAUC	-1.73 ± 0.14	-1.5 ± 0.17
UCCCAGCAAUAUUACGCACC	–	-1.21 ± 0.35
AGACAGCAAUAUUACGUAAG	-1.33 ± 0.075	-0.396 ± 0.088
CGCAAGCAAUAUUACGUUAU	-3.78 ± 0.24	-2.44 ± 0.14
GAGCAGCAAUAUUACGAUUC	-0.868 ± 0.093	-0.29 ± 0.14
AACGAGCAAUAUUACGUAUA	-2.83 ± 0.19	-2.34 ± 0.27
UCCGAGCAAUAUUACGAUUA	-1.94 ± 0.28	-1.72 ± 0.26
AUACAGCAAUAUUACGCGAU	-3.88 ± 0.33	-1.94 ± 0.21
UUGUAGCAAUAUUACGAGCC	-1.8 ± 0.27	-1.78 ± 0.34
GCUCAGCAAUAUUACGACAA	-1.6 ± 0.15	-1.42 ± 0.21
GACAAGCAAUAUUACGCCUA	-0.964 ± 0.093	-0.0625 ± 0.088
AGGCAGCAAUAUUACGUGCU	-2.46 ± 0.12	-1.5 ± 0.1

Sequence	self-splicing fitness (ln) (30 °C)	self-splicing fitness (ln) (37 °C)
AAACAGCAAUAUUACGUAUA	-3 ± 0.14	-1.27 ± 0.12
UAAGAGCAAUAUUACGACAG	-3.17 ± 0.25	-2.34 ± 0.23
UAAUAGCAAUAUUACGGACA	-1.12 ± 0.17	-0.393 ± 0.16
GAUCAGCAAUAUUACGUUGU	-3.48 ± 0.13	-2.78 ± 0.16
AUAGAGCAAUAUUACGCCUG	-0.827 ± 0.092	0.302 ± 0.15
CUACAGCAAUAUUACGACGC	-3.16 ± 0.34	-2.08 ± 0.27
GGGCAGCAAUAUUACGAGUU	-2.81 ± 0.2	-1.27 ± 0.22
CGCAAGCAAUAUUACGAGUG	-1.99 ± 0.057	-1.72 ± 0.084
CGUGAGCAAUAUUACGCGGC	-2.91 ± 0.24	-3.19 ± 0.28
GCCCAGCAAUAUUACGCUUA	-0.569 ± 0.071	-0.378 ± 0.08
UAACAGCAAUAUUACGCCUU	-1.48 ± 0.074	-0.968 ± 0.094
UCAGAGCAAUAUUACGGCGC	-1.6 ± 0.2	-2.6 ± 0.45
AAAGAGCAAUAUUACGCCAA	-1.26 ± 0.21	–
UCCUAGCAAUAUUACGUACC	-2.36 ± 0.47	–
UUUUAGCAAUAUUACGCCGA	-1.15 ± 0.29	-0.282 ± 0.32
ACAUAGCAAUAUUACGCAGU	-3.57 ± 0.28	-2.84 ± 0.36
AUUGAGCAAUAUUACGAGCG	-3.1 ± 0.27	–
AUUGAGCAAUAUUACGAAAG	-2.69 ± 0.38	-1.72 ± 0.29
AAAUAGCAAUAUUACGGAAC	-4.71 ± 0.45	-1.74 ± 0.36
AGCUAGCAAUAUUACGGUUA	-0.191 ± 0.067	0.383 ± 0.073
AAAUAGCAAUAUUACGAUGC	-2.26 ± 0.31	-1.65 ± 0.34
AGGGAGCAAUAUUACGUCGG	–	-1.52 ± 0.38
CGUCAGCAAUAUUACGAGGC	-4.66 ± 0.36	-3.2 ± 0.47
GUCUAGCAAUAUUACGUAAC	-0.708 ± 0.13	-0.195 ± 0.13
AGCGAGCAAUAUUACGCGGG	-2.55 ± 0.24	-2.54 ± 0.36

Sequence	self-splicing fitness (ln) (30 °C)	self-splicing fitness (ln) (37 °C)
CAACAGCAAUAUUACGGCCA	-2.55 ± 0.15	-1.59 ± 0.14
UUAUAGCAAUAUUACGACCA	-0.882 ± 0.2	-0.384 ± 0.21
UGGCAGCAAUAUUACGUAGG	-0.869 ± 0.092	-0.975 ± 0.14
CAUAAGCAAUAUUACGGUGU	-3.84 ± 0.15	-2.38 ± 0.14
GUGGAGCAAUAUUACGUGAG	-2.1 ± 0.19	-2.39 ± 0.21
CUAUAGCAAUAUUACGCCCA	-3.06 ± 0.37	-1.7 ± 0.43
AGUCAGCAAUAUUACGGUAC	-3 ± 0.16	-1.88 ± 0.21
UCAAAGCAAUAUUACGCCAG	-1.35 ± 0.13	-0.892 ± 0.18
UAUCAGCAAUAUUACGGUCA	-0.435 ± 0.057	0.0755 ± 0.071
CAUCAGCAAUAUUACGAAUU	-1.2 ± 0.11	-1.55 ± 0.14
CCGCAGCAAUAUUACGGUAU	-4.73 ± 0.23	-3.44 ± 0.17
CGCAAGCAAUAUUACGGUUC	-4.01 ± 0.23	-2.6 ± 0.16
AGCAAGCAAUAUUACGAUUC	-2.18 ± 0.13	-1.04 ± 0.15
CUUCAGCAAUAUUACGCCAU	-4.2 ± 0.3	-2.02 ± 0.23
CUGGAGCAAUAUUACGGGCG	-1.16 ± 0.12	-0.434 ± 0.12
CUUUAGCAAUAUUACGGUAU	-4.49 ± 0.34	-2.4 ± 0.24
CUUCAGCAAUAUUACGUCUG	-2.73 ± 0.12	-1.48 ± 0.16
CUAGAGCAAUAUUACGUGGC	-3.87 ± 0.24	-1.8 ± 0.23
CUAGAGCAAUAUUACGCUGG	–	-2.1 ± 0.33
UUCGAGCAAUAUUACGUUGC	-2.18 ± 0.23	-1.27 ± 0.28
GUUGAGCAAUAUUACGGCCC	-1.28 ± 0.19	-0.757 ± 0.29
CUUGAGCAAUAUUACGAAAA	-2.53 ± 0.38	-1.92 ± 0.38
AUUGAGCAAUAUUACGAUCA	-1.91 ± 0.16	-2.07 ± 0.17
AGCUAGCAAUAUUACGAGGG	-3.75 ± 0.21	-1.34 ± 0.14
CCUAAGCAAUAUUACGCGCU	-2.38 ± 0.22	-2.75 ± 0.3

Sequence	self-splicing fitness (ln) (30 °C)	self-splicing fitness (ln) (37 °C)
UCCGAGCAAUAUUACGUGCG	-3.49 ± 0.43	-2.63 ± 0.34
UGAUAGCAAUAUUACGGCAC	-2.97 ± 0.33	-1.51 ± 0.43
ACAAAGCAAUAUUACGGAAG	-2.47 ± 0.091	-1.61 ± 0.11
GGAUAGCAAUAUUACGUUCG	-1.55 ± 0.12	-1.64 ± 0.14
UCCAAGCAAUAUUACGUGAC	-3.7 ± 0.3	-3.17 ± 0.35
CGACAGCAAUAUUACGUGGU	-3.79 ± 0.18	-3.34 ± 0.17
AUCCAGCAAUAUUACGUGCC	-3.16 ± 0.21	-1.09 ± 0.16
CAAAAGCAAUAUUACGUAAA	-1.47 ± 0.092	-1.32 ± 0.11
GUUAAGCAAUAUUACGGAGU	-3.71 ± 0.23	-0.486 ± 0.13
GCCCAGCAAUAUUACGCCGU	-0.724 ± 0.092	-0.492 ± 0.094
UCCCAGCAAUAUUACGAUGA	-0.0138 ± 0.055	0.23 ± 0.069
CAAUAGCAAUAUUACGAGAC	-4.17 ± 0.36	-2.1 ± 0.27
GCUAAGCAAUAUUACGAGGG	-2.18 ± 0.14	-1.64 ± 0.16
GAUUAGCAAUAUUACGUCGU	-2.56 ± 0.19	-1.13 ± 0.17
CGACAGCAAUAUUACGAUUU	-2.34 ± 0.075	-1.26 ± 0.087
AACUAGCAAUAUUACGAAAC	-3.3 ± 0.21	-2.94 ± 0.3
UUUUAGCAAUAUUACGGCUU	-1.98 ± 0.17	-0.826 ± 0.2
CAAUAGCAAUAUUACGUAUA	-3.6 ± 0.22	-2.58 ± 0.19
AGGCAGCAAUAUUACGGUGA	-1.37 ± 0.14	-0.711 ± 0.11
CGUAAGCAAUAUUACGUCCC	-3.09 ± 0.38	-1.21 ± 0.29
UGAGAGCAAUAUUACGUCAG	–	-3.02 ± 0.31
CUGCAGCAAUAUUACGGACU	-3.58 ± 0.21	-1.33 ± 0.15
UGGAAGCAAUAUUACGUCGC	-3.16 ± 0.45	-2.39 ± 0.35

Source: the supplement of paper PMC7877785
